In the experiment the target is N-Ras蛋白 (UniProt P01111). Briefly: indirect ELISA; N-Ras coated at 5 ug/ml, fusion protein diluted 1:100 to 1:3200, anti-His-tag antibody then HRP goat anti-mouse IgG, OD450. The conditions noted are these: scale: dilution factor.

The results in this text go back to CN113667018A.

UniProt P01111, sequence (P01111 whole entry, the tested form may be a part): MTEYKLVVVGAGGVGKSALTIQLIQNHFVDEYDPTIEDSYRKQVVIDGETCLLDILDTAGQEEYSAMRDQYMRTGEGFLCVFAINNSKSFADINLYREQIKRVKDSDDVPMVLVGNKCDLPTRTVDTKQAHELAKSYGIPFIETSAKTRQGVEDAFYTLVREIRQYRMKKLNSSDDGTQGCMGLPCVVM

B1: BR2-抗p21Ras单链抗体融合蛋白 (scFv, V domains shown, not shown: small tags and cut ends)
VH: QVKLQESGEGLVKPGGSLKLSCAASGFTFSDYYMYWVRQTPEKRLEWVAIISDGGSYTYYPDSVKGRFTISRDNTKKNLYLQMSSLRSEDTAMYYCARDPHYSGSSRLFVNWGQGTTVTVSS
B1: the 结合效价 (ELISA titer) was determined as 800.
